Laboratory results published in publication PMC10397247.

Key:
Assay in all cases: two-hybrid library CCmax;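 also: natural log of median RNA to DNA barcode read ratio; higher means stronger binding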
[1] = target: T1, 4H174-AA
T1 chain: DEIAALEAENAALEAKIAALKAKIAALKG

[2] = target: T2, 4H1842-AA; details: mean of both orientations
T2 chain: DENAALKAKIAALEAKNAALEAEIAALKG

[3] = target: T3, 4H1864-AA; details: mean of both orientations
T3 chain: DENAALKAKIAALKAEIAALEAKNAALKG

[4] = target: T4, 4H1877-AA; details: mean of both orientations
T4 chain: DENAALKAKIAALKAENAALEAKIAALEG

[5] = target: T5, 4H2109-AA; details: mean of both orientations
T5 chain: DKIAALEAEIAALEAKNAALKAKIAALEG

[6] = target: T6, 4H2162-AA; details: mean of both orientations
T6 chain: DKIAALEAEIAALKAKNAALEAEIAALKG

[7] = target: T7, 4H2253-AA; details: mean of both orientations
T7 chain: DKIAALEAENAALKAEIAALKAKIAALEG

[8] = target: T8, 4H2274-AA; details: mean of both orientations
T8 chain: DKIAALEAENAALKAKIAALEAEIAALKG

[9] = target: T9, 4H2330-AA; details: mean of both orientations
T9 chain: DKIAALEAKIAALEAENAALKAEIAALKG

[10] = target: T10, 4H2389-AA; details: mean of both orientations
T10 chain: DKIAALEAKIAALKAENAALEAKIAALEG

[11] = target: T11, 4H2438-AA; details: mean of both orientations
T11 chain: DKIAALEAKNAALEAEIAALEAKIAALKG

[12] = target: T12, 4H2473-AA; details: mean of both orientations
T12 chain: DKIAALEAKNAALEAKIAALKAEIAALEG

[13] = target: T13, 4H2649-AA; details: mean of both orientations
T13 chain: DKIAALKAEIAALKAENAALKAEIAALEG

[14] = target: T14, 4H2698-AA; details: mean of both orientations
T14 chain: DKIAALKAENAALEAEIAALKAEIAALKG

[15] = target: T15, 4H2725-AA; details: mean of both orientations
T15 chain: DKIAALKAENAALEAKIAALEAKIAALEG

[16] = target: T16, 4H2865-AA; details: mean of both orientations
T16 chain: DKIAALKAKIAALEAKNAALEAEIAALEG

[17] = target: T17, 4H3009-AA; details: mean of both orientations
T17 chain: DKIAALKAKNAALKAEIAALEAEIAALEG

[18] = target: T18, 4H3016-AA; details: mean of both orientations
T18 chain: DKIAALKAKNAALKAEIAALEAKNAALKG

[19] = target: T19, 4H310-AA; details: mean of both orientations
T19 chain: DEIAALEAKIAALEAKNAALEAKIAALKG

[20] = target: T20, 4H3120-AA; details: mean of both orientations
T20 chain: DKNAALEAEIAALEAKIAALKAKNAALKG

[21] = target: T21, 4H3130-AA
T21 chain: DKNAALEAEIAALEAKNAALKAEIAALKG

[22] = target: T22, 4H3165-AA; details: mean of both orientations
T22 chain: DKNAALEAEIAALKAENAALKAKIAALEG

[23] = target: T23, 4H3381-AA; details: mean of both orientations
T23 chain: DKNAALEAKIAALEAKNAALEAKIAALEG

[24] = target: T24, 4H3395-AA
T24 chain: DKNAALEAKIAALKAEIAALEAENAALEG

[25] = target: T25, 4H3410-AA; details: mean of both orientations
T25 chain: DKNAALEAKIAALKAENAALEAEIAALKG

[26] = target: T26, 4H3590-AA; details: mean of both orientations
T26 chain: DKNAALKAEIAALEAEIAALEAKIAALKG

[27] = target: T27, 4H3697-AA; details: mean of both orientations
T27 chain: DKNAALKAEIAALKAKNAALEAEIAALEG

[28] = target: T28, 4H3753-AA; details: mean of both orientations
T28 chain: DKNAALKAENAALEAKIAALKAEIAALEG

[29] = target: T29, 4H3865-AA; details: mean of both orientations
T29 chain: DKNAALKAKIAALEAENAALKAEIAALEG

[30] = target: T30, 4H458-AA; details: mean of both orientations
T30 chain: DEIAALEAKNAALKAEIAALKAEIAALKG

[31] = target: T31, 4H485-AA; details: mean of both orientations
T31 chain: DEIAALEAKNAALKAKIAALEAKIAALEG

[32] = target: T32, 4H536-AA; details: mean of both orientations
T32 chain: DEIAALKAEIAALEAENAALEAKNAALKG

[33] = target: T33, 4H570-AA; details: mean of both orientations
T33 chain: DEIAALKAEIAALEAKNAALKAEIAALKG

[34] = target: T34, 4H629-AA; details: mean of both orientations
T34 chain: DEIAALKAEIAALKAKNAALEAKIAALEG

[35] = target: T35, 4H710-AA; details: mean of both orientations
T35 chain: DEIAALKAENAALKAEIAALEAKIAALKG

[36] = target: T36, 4H745-AA; details: mean of both orientations
T36 chain: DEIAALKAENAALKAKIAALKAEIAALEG

[37] = target: T37, 4H797-AA; details: mean of both orientations
T37 chain: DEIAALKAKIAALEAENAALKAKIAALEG

[38] = target: T38, 4H850-AA; details: mean of both orientations
T38 chain: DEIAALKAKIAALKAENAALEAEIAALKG

[39] = target: T39, 4H891-AA; details: mean of both orientations
T39 chain: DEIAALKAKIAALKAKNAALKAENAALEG

[40] = target: T40, 4H909-AA; details: mean of both orientations
T40 chain: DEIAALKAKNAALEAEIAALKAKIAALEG

[41] = target: T41, 4H930-AA; details: mean of both orientations
T41 chain: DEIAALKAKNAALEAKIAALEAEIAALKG

[42] = target: T42, 4H94-AA; details: mean of both orientations
T42 chain: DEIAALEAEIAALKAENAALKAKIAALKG

interaction score [1]: 1.79
interaction score [2]: -0.689
interaction score [3]: -0.256
interaction score [4]: -0.507
interaction score [5]: 2.01
interaction score [6]: -0.944
interaction score [7]: 0.429
interaction score [8]: 1.3
interaction score [9]: 0.552
interaction score [10]: -0.219
interaction score [11]: 2.25
interaction score [12]: 1.69
interaction score [13]: -0.748
interaction score [14]: 2.04
interaction score [15]: 1.47
interaction score [16]: 0.805
interaction score [17]: 2.3
interaction score [18]: 1.81
interaction score [19]: 1.6
interaction score [20]: -0.846
interaction score [21]: 1.99
interaction score [22]: -1.24
interaction score [23]: -1.38
interaction score [24]: 0.219
interaction score [25]: -0.289
interaction score [26]: 2.2
interaction score [27]: -0.364
interaction score [28]: 1.06
interaction score [29]: 0.259
interaction score [30]: 0.887
interaction score [31]: 1.94
interaction score [32]: -0.546
interaction score [33]: 1.49
interaction score [34]: -0.697
interaction score [35]: 2.23
interaction score [36]: 1.69
interaction score [37]: -1.35
interaction score [38]: 1.05
interaction score [39]: -0.401
interaction score [40]: 0.929
interaction score [41]: 1.44
interaction score [42]: 1.29
B1: 4H174-AA (peptide)
chain: DEIAALEAENAALEAKIAALKAKIAALKG
